Reference: patent US20100196361A1, “Method of inhibition of vascular development using an antibody” (DYAX CORP., priority 2003, published 2010)
Substitutions are numbered along the chain they refer to. Where two headings read alike, the source gives them in different places.

T1: Tie1-EpoR chimeric receptor (UniProt P14753+P35590)
T1 construct: PCR amplified extracellular part of human Tie1 (bp 37-2316 of X60975); expressed in transfected cells
T1 sequence (P35590+P14753 with tags, fused parts or gaps): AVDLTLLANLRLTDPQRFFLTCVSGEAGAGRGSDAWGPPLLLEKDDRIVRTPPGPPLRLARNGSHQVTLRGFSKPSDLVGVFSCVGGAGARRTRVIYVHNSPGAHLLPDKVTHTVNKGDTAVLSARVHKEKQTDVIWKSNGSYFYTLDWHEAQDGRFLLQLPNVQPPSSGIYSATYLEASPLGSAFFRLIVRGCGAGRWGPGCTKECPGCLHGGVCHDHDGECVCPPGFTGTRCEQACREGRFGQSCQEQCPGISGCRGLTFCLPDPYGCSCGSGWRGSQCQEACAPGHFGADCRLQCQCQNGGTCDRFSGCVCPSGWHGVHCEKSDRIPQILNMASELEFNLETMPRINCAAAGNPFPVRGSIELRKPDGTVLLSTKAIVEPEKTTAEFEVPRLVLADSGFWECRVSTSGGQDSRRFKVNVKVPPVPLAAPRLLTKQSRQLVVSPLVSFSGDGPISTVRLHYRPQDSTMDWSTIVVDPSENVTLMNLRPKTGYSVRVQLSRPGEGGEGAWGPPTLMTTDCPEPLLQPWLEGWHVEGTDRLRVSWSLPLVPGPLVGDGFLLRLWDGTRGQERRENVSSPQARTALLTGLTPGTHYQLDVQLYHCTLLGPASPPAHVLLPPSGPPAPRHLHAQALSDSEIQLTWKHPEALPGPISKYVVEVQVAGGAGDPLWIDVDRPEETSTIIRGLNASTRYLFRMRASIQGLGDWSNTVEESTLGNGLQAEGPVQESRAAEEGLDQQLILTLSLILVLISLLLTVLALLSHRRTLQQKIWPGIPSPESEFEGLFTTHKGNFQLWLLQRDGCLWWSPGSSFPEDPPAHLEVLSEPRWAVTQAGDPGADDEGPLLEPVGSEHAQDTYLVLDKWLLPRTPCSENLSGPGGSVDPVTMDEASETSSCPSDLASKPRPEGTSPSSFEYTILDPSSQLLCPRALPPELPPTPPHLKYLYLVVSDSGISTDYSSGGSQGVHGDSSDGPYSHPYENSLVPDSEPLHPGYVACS

B1: E3: human anti-Tie1 antibody from phage Fab library, reformatted as IgG; HC variable SEQ ID NO:114, LC variable SEQ ID NO:116 (antibody, V domains shown)
VH: EVQLLESGGGLVQPGGSLRLSCAASGFTFSMYGMVWVRQAPGKGLEWVSVISPSGGNTGYADSVKGRFTISRDNSKNTLYLQVNSLRAEDTAVYYCARAPRGYSYGYYYWGQGTLVTVSSASTKGPSVFPLAPSSKSTSGG
VL: DIQMTQSPLSLSASVGDRVTITCRASQGIGHYLAWYQQKPGKVPKLLIYTASTLQSGVPSRFSGSGSGTDFTLTINSLQPEDVATYYCQQFNSYPHTFGQGTRLDIK
modifications: IgG constant regions; Synthetically generated peptide
B2: parental E3 Fab: soluble Fab fragment of the parental E3 anti-Tie1 antibody (antibody, V domains shown)
VH: B1 VH
VL: B1 VL
B3: DX-2210: E3 antibody in which the light chain has been germlined (antibody, V domains shown)
VH: B1 VH
VL: B1 VL with L9S, N76S, D105E

Experiments:
[1] = target: T1, Tie1-EpoR chimeric receptor; test: BaF3 bioassay (Tie1/EpoR chimeric BaF3 cell assay); type: cell-based, human; conditions: for survival (viability) of Tie1-EpoR BaF3 cells: no IL-3, MTT
Text: BaF3 bioassay. To generate Tie1-EpoR expressing BaF3 cells for the bioassay, BaF3 pre-B cells were stably transfected with a nucleic acid that expresses chimeric receptor containing the extracellular domain of human Tie1 fused with the transmembrane and cytoplasmic domains of the mouse erythropoietin receptor. The nucleic acid used was a Tie1-EpoR chimeric cDNA in a pEF-BOS expression vector. The nucleic acid encoding the chimeric receptor was constructed by cloning the PCR amplified extracellular part of human Tie1 (bp 37-2316 of X60975) as EcoRI-BglII fragment into mEpoR-pcDNA vector. The cDNA encoding for the chimeric receptor consisting of the extracellular part of Tie1 fused with the transmembrane and intracellular domains of EpoR was subcloned into the pEF-BOS expression vector. Vector was linearized and co-transfected into BaF3 cells with pcDNA3.1(+) Zeo vector (Invitrogen). Stable cell pools were generated by selection with 250 μg/ml Zeocin. The expression of Tie1/EpoR fusion protein in several clones was analyzed by Western blotting with an antibody against EpoR.
To perform the assays, BaF3 cells expressing the Tie1-EpoR chimera were split in 96-well microtiter plates at 50 000 cells/well in the presence of the indicated concentrations of anti-Tie1 antibodies. The E3 antibody used in this study was the germ-lined E3 antibody (DX-2220). As controls, Zeocin resistant pools not expressing the Tie1-EpoR were used. After 48 h, the viability of the cells was determined by adding MTT (3-(4,5-dimethylthiazol-2-yl)-2,5-diphenyl tetrazolium bromide (Sigma), 0.5 mg/ml), followed by further 2 h of culture, addition of an equal volume of cell lysis solution (10% SDS, 10 mM HCl) and incubation overnight at 37° C. Absorbance was measured at 540 nm.
Stimulation and inhibition of Tie1 in Tie1-EpoR transfected BaF3 cells and human primary endothelial cells. Although no ligand for Tie1 has been identified, we used the following efficient screening method for Tie1-binding proteins. Interleukin-3 dependent pre-B-lymphocyte (BaF3) cells were transfected with a construct that expresses a Tie1-EpoR fusion protein. Since BaF3 cells are IL-3 dependent, they die unless IL-3 is provided. However, Tie-EpoR receptor expressing BaF3 cells can survive and proliferate if the medium contains a Tie1-binding protein, either a natural ligand or an artificial mimetic. Cell survival can be quantitated, e.g., by colorimetric MTT-assay, which measures mitochondrial activity.
To determine if any of the other monoclonal antibodies tested inhibit the survival effect of E3 IgG in Tie1-EpoR BaF3 assay, antibodies were studied in combination with E3 IgG. A concentration of 100 ng/ml of E3 IgG together with 100 (1:1) or 500 (1:5) ng/ml of the other antibodies were used and the viability of Tie1-EpoR cells was measured.

platelets = test: Platelet agglutination and aggregation; type: cell-based
Text: It has been reported that Tie1 is expressed on platelets ([…] et al. (2000) J. Vasc. Res. 37(6):437). The possibility of platelet immunoreactivity with the E3 anti-Tie1 antibody was investigated by FACs analysis and immunoprecipitation studies. […] In addition, the effect of DX-2200 and DX-2210 on platelet agglutination and aggregation was investigated. Ristocetin, a cofactor that induces platelet agglutination by mediating the binding of von Willebrand factor (vWF) to platelet membrane glycoprotein GPIb (CD42), was used as a positive control for platelet agglutination.

Molecule | viability of EpoR BaF3 cells used as a control ([1]; cells not expressing Tie1-EpoR) | survival (viability) of Tie1-EpoR BaF3 cells [1] | survival (viability) of Tie1-EpoR BaF3 cells ([1]; listed as E3 IgG) | concentration giving almost maximal viability in Tie1-EpoR cell survival assays ([1]; viability dose dependent) [ng/mL] | induction of platelet agglutination or aggregation (platelets; ristocetin and anti-CD9 as positive controls) | induction of platelet agglutination or aggregation (platelets)
B1 | not affected | functions as a Tie1 activating antibody in the BaF3 cell bioassay | able to promote survival of Tie1-EpoR cells | 50 | Neither the DX-2200 nor its light chain germlined variant DX-2210 induced platelet agglutination or aggregation | –
B2 | – | no effect on the viability of Tie1-EpoR cells | – | – | – | –
B3 | – | – | – | – | – | Neither the DX-2200 nor its light chain germlined variant DX-2210 induced platelet agglutination or aggregation
